Results reported in patent US20160311887A1 (CAMBRIDGE ENTERPRISE, published 2016).

Legend:
[1] = biological target: T1, fXa (UniProt P00742 41-179; P00742 235-488); assay: pseudo-first-order inhibition kinetics, residual chromogenic activity (S2222)
T1 construct: also called factor Xa
Protocol: (§1) The inhibition of APC was reduced but still considerable, especially for the variants of α₁AT and the PCI variants in the presence of heparin. However, the specificity of PCI and α₁AT Pitts is not limited to thrombin and APC. […] In order not to inhibit coagulation, our variants also need to be specific for APC over fXa. We therefore also determined the rate constants of inhibition of PCI and α₁AT and their variants for fXa (Table 3). Rate constants were measured under pseudo-first-order conditions using an excess of serpin over protease. Serpin and protease were incubated together for varying lengths of time and the residual activity determined by adding an excess of chromogenic substrate (S2222) for the protease. Plots of residual protease activity over time gave the observed rate constant kobs. The second-order rate constant, k₂, is the slope of the plot of kobs versus serpin concentration (fitted using a linear regression model). Standard errors of the slope are shown (Table 3).

[2] = biological target: T2, activated Protein C (APC) (human, UniProt P04070 43-197; P04070 212-461); assay: ratio of rate constants, APC over fXa
T2 construct: also called human plasma APC
Protocol: as §1

[3] = biological target: T2, activated Protein C (APC); assay: ratio of rate constants, APC over thrombin (repeated from Table 1)
Protocol: (§2) Rate constants of thrombin and APC inhibition were measured under pseudo-first-order conditions using an excess of serpin over protease (Table 1). Serpin and protease were incubated together for varying lengths of time and the residual activity was determined by adding an excess of chromogenic substrate for the protease (S2238 for thrombin and […] for APC). Residual protease activity was then measured by following the absorbance at 405 nm. Plots of residual protease activity over time gave the observed rate constant kobs. The second-order rate constant, ₖ₂, is the slope of the plot of kobs versus serpin concentration (fitted using a linear regression model). Standard errors of the slope are shown.

[4] = biological target: T2, activated Protein C (APC); assay: ratio of rate constants, APC over fXIa
Protocol: APC inhibition is shown for comparison (from Table 1). Standard errors are shown.
In addition we wanted to determine whether FL α₁AT Pitts C232S P2KP1′K affected the intrinsic (contact activation) pathway. Second-order rate constants of inhibition of fXIa by FL α₁AT Pitts C232S and the P2KP1′K variant were measured under pseudo first-order conditions using an excess of serpin over protease. Serpin and protease were incubated together for varying lengths of time and the residual activity determined by adding an excess of chromogenic substrate for the protease (S2366). Plots of residual protease activity over time gave the observed rate constant kobs. The second-order rate constant, k₂, is the slope of the plot of kobs versus serpin concentration (fitted using a linear regression model). Standard errors of the slope are given.

[5] = biological target: T2, activated Protein C (APC); assay: ratio of rate constants, APC over thrombin
Protocol: as §2

[6] = biological target: T2, activated Protein C (APC); assay: pseudo-first-order inhibition kinetics (repeated from Table 1)
Protocol: as §2

[7] = biological target: T3, thrombin (UniProt P00734 328-622); assay: as above
Protocol: as §2

[8] = biological target: T2, activated Protein C (APC); assay: pseudo-first-order inhibition kinetics, residual chromogenic activity
Protocol: as §2

[9] = biological target: T3, thrombin; assay: as above
Protocol: as §2

[10] = biological target: T2, activated Protein C (APC); assay: ratio of rate constants, APC over fXa (repeated from Table 3)
Protocol: as §1

[11] = biological target: T3, thrombin; assay: pseudo-first-order inhibition kinetics, residual chromogenic activity (S2238)
Protocol: as §2

T2 sequence (P04070 43-197, chain 1 of 2): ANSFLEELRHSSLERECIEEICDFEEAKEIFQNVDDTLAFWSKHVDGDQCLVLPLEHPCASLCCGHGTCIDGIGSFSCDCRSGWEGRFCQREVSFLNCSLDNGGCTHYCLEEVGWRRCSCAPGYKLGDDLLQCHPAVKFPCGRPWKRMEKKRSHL
T2 sequence (P04070 212-461, chain 2 of 2): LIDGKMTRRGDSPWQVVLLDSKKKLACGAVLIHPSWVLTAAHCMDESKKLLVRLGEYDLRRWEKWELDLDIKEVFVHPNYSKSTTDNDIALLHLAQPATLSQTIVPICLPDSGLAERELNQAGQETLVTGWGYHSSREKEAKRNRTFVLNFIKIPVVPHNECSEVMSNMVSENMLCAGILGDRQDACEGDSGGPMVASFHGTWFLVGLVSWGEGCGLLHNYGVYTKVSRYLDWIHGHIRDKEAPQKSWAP
T1 sequence (P00742 41-179 limits assumed, form in doubt, chain 1 of 2): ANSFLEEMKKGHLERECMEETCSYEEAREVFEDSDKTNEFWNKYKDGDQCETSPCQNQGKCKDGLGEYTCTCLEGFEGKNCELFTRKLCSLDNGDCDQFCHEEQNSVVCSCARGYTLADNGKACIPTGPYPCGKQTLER
T1 sequence (P00742 235-488 limits assumed, form in doubt, chain 2 of 2): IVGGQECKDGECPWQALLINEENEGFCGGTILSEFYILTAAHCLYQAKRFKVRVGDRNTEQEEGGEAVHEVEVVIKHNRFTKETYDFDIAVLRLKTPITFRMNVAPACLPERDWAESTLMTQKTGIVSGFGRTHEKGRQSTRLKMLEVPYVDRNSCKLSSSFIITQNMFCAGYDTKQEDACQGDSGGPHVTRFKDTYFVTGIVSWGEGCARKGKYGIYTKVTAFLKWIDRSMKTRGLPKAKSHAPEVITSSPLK

| second-order rate constant of inhibition [1] | fold inhibition APC/fXa [2] | inhibition of APC/thrombin [3] | inhibition of APC/fXIa [4] | fold inhibition APC/thrombin [5] | second-order rate constant of inhibition [6] | second-order rate constant of inhibition [7] | second-order rate constant of inhibition [8] | second-order rate constant of inhibition [9] | inhibition of APC/fXa [10] | binding result [11] | Binder |
| --- | --- | --- | --- | --- | --- | --- | --- | --- | --- | --- | --- |
| 41300 M⁻¹ s⁻¹ | 2.6 fold | 0.4 fold | 0.3 fold | 0.4 fold | 108000 M⁻¹ s⁻¹ | 293000 M⁻¹ s⁻¹ | 108000 M⁻¹ s⁻¹ | 293000 M⁻¹ s⁻¹ | 2.6 fold | – | FL α1AT Pitts C232S (other, Serpin; E. coli, SUMO tag removed; also called α1-antitrypsin Pittsburgh) SDPQGDAAQKTDTSHHDQDHPTFNKITPNLAEFAFSLYRQLAHQSNSTNIFFSPVSIATAFAMLSLGTKADTHDEILEGLNFNLTEIPEAQIHEGFQELLRTLNQPDSQLQLTTGNGLFLSEGLKLVDKFLEDVKKLYHSEAFTVNFGDTEEAKKQINDYVEKGTQGKIVDLVKELDRDTVFALVNYIFFKGKWERPFEVKDTEEEDFHVDQVTTVKVPMMKRLGMFNIQHSKKLSSWVLLMKYLGNATAIFFLPDEGKLQHLENELTHDIITKFLENEDRRSASLHLPKLSITGTYDLKSVLGQLGITKVFSNGADLSGVTEEAPLKLSKAVHKAVLTIDEKGTEAAGAMFLEAIPRSIPPEVKFNKPFVFLMIEQNTKSPLFMGKVVNPTQK |
| 120 M⁻¹ s⁻¹ | 126 fold | – | 32.2 fold | – | 15100 M⁻¹ s⁻¹ | – | 15100 M⁻¹ s⁻¹ | – | 126 fold | no binding (tested: 4 h) | FL α1AT Pitts C232S P2KP1′K (other, E. coli, SUMO tag removed; also called P2KP1′K α1AT; P2KP1′K mutant of α1AT Pitts) SDPQGDAAQKTDTSHHDQDHPTFNKITPNLAEFAFSLYRQLAHQSNSTNIFFSPVSIATAFAMLSLGTKADTHDEILEGLNFNLTEIPEAQIHEGFQELLRTLNQPDSQLQLTTGNGLFLSEGLKLVDKFLEDVKKLYHSEAFTVNFGDTEEAKKQINDYVEKGTQGKIVDLVKELDRDTVFALVNYIFFKGKWERPFEVKDTEEEDFHVDQVTTVKVPMMKRLGMFNIQHSKKLSSWVLLMKYLGNATAIFFLPDEGKLQHLENELTHDIITKFLENEDRRSASLHLPKLSITGTYDLKSVLGQLGITKVFSNGADLSGVTEEAPLKLSKAVHKAVLTIDEKGTEAAGAMFLEAIKRKIPPEVKFNKPFVFLMIEQNTKSPLFMGKVVNPTQK |
